B1: ZBTB22 (parent)
chain: RPFDCPVCNKKFKMKHHLTEHMKT

Variants of: B1
Experiment: protein stability index of a GFP-peptide fusion (GPS, HEK-293T) (PSI 1-6); higher = more stable
Conditions: c terminus: a fixed tail appended
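Further: lentivirally expressed fusions sorted by FACS into six bins by GFP to DsRed ratio, PSI derived from sequencing read proportions per bin multiplied by bin number.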

Protein stability index of substitutions, site by site:
E20: V 2.36; I 2.21; R 3.45; Y 1.85; G 2.73; Q 2.8; A 2.78; D 2.99; T 2.31; H 2.44; L 1.83; F 2.21; M 2.62; K 3.1; C 2.83; S 1.93; N 3; W 2.08; P 2.11
F12: D 2.22; Q 2.6; A 2.44; I 2.49; S 2.53; T 2.64; Y 2.4; E 3.22; K 2.1; M 2.78; C 4.09; R 1.83; N 1.96; L 2.38; W 2.02; G 2.65; V 2.04; P 2.5; H 2.6
D4: I 3.62; H 2.87; K 3.28; F 2.95; L 2.92; V 3.54; Y 3.25; A 3.31; M 3.5; Q 3.46; W 2.6; N 2.88; R 3.1; P 1.71; T 3.43; S 3.5; E 3.6; C 3.54; G 2.73
L18: R 2.89; D 2.39; M 2.19; A 2.93; Y 2.25; Q 2.58; V 3.5; K 2.78; F 2.7; E 2.78; S 2.44; I 2.1; W 2.59; C 4.01; N 2.59; G 3.36; P 2.37; H 3.08; T 2.67
V7: A 2.21; P 2.7; G 3.06; I 3.09; T 2.47; E 3.58; N 2.48; S 2.77; Q 2.45; C 3.91; W 2.85; M 2.25; Y 3; F 3.21; D 2.82; H 3.27; L 2.53; K 2.96; R 2.39
C5: Q 2.94; G 3.3; W 2.41; S 3.15; M 2.9; H 2.78; R 3.21; F 2.66; V 2.61; N 3; E 3.76; P 3.23; T 3.71; Y 2.93; I 2.64; A 2.51; K 3.19; D 3.21; L 2.6
N9: K 3.23; Y 2.07; A 2.95; L 2.83; C 2.43; I 1.92; D 3.13; W 1.49; R 2.03; S 2.43; E 3.36; V 2.06; T 2.27; Q 2.33; M 2.54; H 3.23; P 2.43; F 2.27; G 3.59
K11: G 2.43; P 2.34; C 2.44; A 2.23; E 2.89; R 2.8; F 1.8; N 2.79; H 2.85; V 2.52; Q 2.31; T 2.91; Y 2.17; S 3.12; D 2.55; L 2.25; I 2.36; M 1.84; W 2.21
H21: F 2.06; L 1.45; N 2.38; A 2.74; K 2.25; M 1.54; I 1.84; C 3.33; G 2.38; E 2.88; D 2.37
T19: N 2.88; G 3.17; P 2.48; S 2.35; M 3.18; E 3.39; L 2.8; A 2.89; C 4.25; Y 2.41; D 3.19; F 2.28; K 2.48; V 3; R 3.34; Q 2.33; W 2.02; I 3.07; H 2.8
K15: S 2.22; N 2.12; W 2.47; M 2.24; V 2.62; A 2.03; E 3.73; I 1.76; L 2.65; C 4.13; P 2.67; F 2.39; H 2.24; Q 2.26; D 2.85; T 1.87; R 2.19; G 2.78; Y 2.37
C8: M 2.93; S 3.03; P 2.62; I 2.72; Y 2.9; K 3.34; F 2.26; R 3.08; L 2.92; A 2.99; V 3.5; N 2.98; D 3.25; H 3; E 2.97; Q 2.81; T 3.48; G 2.8; W 2.42
H17: K 3.1; I 1.79; P 2.19; A 2.17; M 2.42; E 3.42; S 2.42; W 2.08; D 3.07; R 2.18; G 1.74; C 2.25; F 1.73; N 2.62; V 2.24; Q 2.74; Y 1.95; L 1.94; T 2.15
K13: G 2.6; F 2.33; D 3.45; C 4.49; P 2.74; L 2.89; H 2.65; W 2.58; R 2.33; V 2.9; N 2.29; T 3.12; E 3.31; M 2.27; A 2.85; Y 2.72; S 2.91; Q 3.12; I 2.14
K10: V 2.11; N 2.45; G 2.25; A 2.52; W 1.7; M 2.46; R 2.37; P 2.31; F 2.34; S 2.63; C 2.49; Y 2.29; H 2.47; E 3.01; D 2.43; Q 2.21; I 2.03; T 2.96; L 2.19
M14: R 3.14; E 3.72; C 3.9; N 3.89; V 2.58; I 2.35; K 2.93; Q 3.17; F 2.84; G 2.69; H 3.48; L 2.46; A 3.09; W 2.26; P 2.5; T 3.75; S 3.96; D 3.75; Y 3.1
P6: V 2.37; W 1.86; K 2.9; H 2.27; M 2.03; D 3.46; G 2.1; E 2.85; L 2.68; T 2.45; N 2.68; Q 2.32; F 2.15; Y 2.25; R 2.12; S 2.42; C 2.21; I 2.03; A 2.65
H16: T 2.39; K 2.55; W 2.27; A 2.59; Y 2.28; S 2.83; L 2.56; M 2.71; P 2.25; F 1.9; D 2.56; Q 2.7; R 2.29; C 2.91; I 2.08; E 3.27; V 2.08; N 2.71; G 2.11
